Laboratory results taken from the supplement of paper PMC10126150.
± gives the standard deviation of the averaged measurements.

Test system: ATP
Experiment: switch fluorescence ratio, 500 uM ATP over buffer (Cy3 cluster intensity, sum of 5 cycles each) (fold (ratio)); higher = stronger signal-on switching upon ATP binding; sequences stand for … in TCGTCGGCAGCGTCAGATGTGTATAAGAGACAGTTTTTTTTTTTTTTTTTTTTTTTTT…TC
Conditions: aptamer strand: ATP DNA aptamer (quencher-CACCTGGGGGAGTATTGCGGAGGAAGG + anchor), 100 nM annealed; ATP concentration: 500 uM
Procedure, shortened: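 Five buffer/ATP imaging cycles were run on Cy3-labelled switching-strand clusters on a modified Illumina MiSeq flow-cell, with NaOH stripping and re-annealing between cycles. In each cycle, clusters annealed to 100 nM quencher-labelled ATP aptamer were imaged in selection buffer, then after 15 min with 500 uM ATP at 22 °C. Per cluster, the fluorescence ratio is summed target-cycle over summed buffer-cycle Cy3 intensity, averaged per switch-domain sequence. Only clusters within 100-1000 RFU were kept.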
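Note: ATP exposure 15 min at 22 °C before imaging.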

TAAGTTAGAG
switch fluorescence ratio: 0.97 ± 0.024

TAAGTTATGT
switch fluorescence ratio: 1.01 ± 0.015

TAAGTTGAGC
switch fluorescence ratio: 0.965 ± 0.057

TAAGTTGGGG
switch fluorescence ratio: 0.995 ± 0.02

TAAGTTGGTT
switch fluorescence ratio: 1.06 ± 0.014

TAAGTTGTAT
switch fluorescence ratio: 1 ± 0.035

TAAGTTTGCC
switch fluorescence ratio: 1.01 ± 0.04

TAAGTTTGGG
switch fluorescence ratio: 0.968 ± 0.04

TAAGTTTGGT
switch fluorescence ratio: 0.985 ± 0.021

TAAGTTTTGG
switch fluorescence ratio: 0.974 ± 0.017

TAATAAAGAT
switch fluorescence ratio: 0.969 ± 0.054

TAATAACTCT
switch fluorescence ratio: 1 ± 0.061

TAATAATGGA
switch fluorescence ratio: 1.01 ± 0.035

TAATAATTCG
switch fluorescence ratio: 1.01 ± 0.012

TAATACCGTA
switch fluorescence ratio: 1.06 ± 0.084

TAATACTGTT
switch fluorescence ratio: 0.888 ± 0.031

TAATACTTTG
switch fluorescence ratio: 1.04 ± 0.024

TAATAGAGCT
switch fluorescence ratio: 0.995 ± 0.03

TAATCAGAGC
switch fluorescence ratio: 1.02 ± 0.039

TAATCAGGGG
switch fluorescence ratio: 1.07 ± 0.16

TAATCCCGGG
switch fluorescence ratio: 1.3 ± 0.4

TAATCCTAGT
switch fluorescence ratio: 0.997 ± 0.036

TAATCGCATA
switch fluorescence ratio: 2.05 ± 1.2

TAATCGGCCT
switch fluorescence ratio: 1.04 ± 0.05

TAATCGGGGA
switch fluorescence ratio: 0.984 ± 0.029

TAATCGTGTT
switch fluorescence ratio: 0.983 ± 0.014

TAATCTGCTG
switch fluorescence ratio: 1.01 ± 0.02

TAATCTGGTA
switch fluorescence ratio: 0.986 ± 0.017

TAATCTTAGA
switch fluorescence ratio: 0.99489 ± 5.2e-05

TAATGACCTT
switch fluorescence ratio: 1.16 ± 0.18

TAATGCAATA
switch fluorescence ratio: 1.67 ± 0.054

TAATGCGGGA
switch fluorescence ratio: 1 ± 0.027

TAATGCTGTG
switch fluorescence ratio: 0.984 ± 0.036

TAATGCTTGG
switch fluorescence ratio: 1.01 ± 0.031

TAATGGAGGT
switch fluorescence ratio: 0.979 ± 0.038

TAATGGAGTA
switch fluorescence ratio: 1.01 ± 0.052

TAATGGATCG
switch fluorescence ratio: 1 ± 0.044

TAATGGCCTT
switch fluorescence ratio: 0.9862 ± 0.0021

TAATGGGATA
switch fluorescence ratio: 1.02 ± 0.055

TAATGGGATG
switch fluorescence ratio: 0.974 ± 0.015

TAATGGGGAT
switch fluorescence ratio: 0.989 ± 0.022

TAATGGGTGC
switch fluorescence ratio: 1.06 ± 0.038

TAATGGTCAC
switch fluorescence ratio: 1.01 ± 0.011

TAATGTTACT
switch fluorescence ratio: 1.04 ± 0.039

TAATGTTATG
switch fluorescence ratio: 1.03 ± 0.017

TAATGTTTGT
switch fluorescence ratio: 0.986 ± 0.048

TAATTACGGA
switch fluorescence ratio: 1.06 ± 0.026

TAATTACTAT
switch fluorescence ratio: 1.12 ± 0.17

TAATTATATT
switch fluorescence ratio: 0.988 ± 0.023

TAATTATCCG
switch fluorescence ratio: 1.05 ± 0.044

TAATTCGCGA
switch fluorescence ratio: 1.15 ± 0.034

TAATTCGGGG
switch fluorescence ratio: 0.97 ± 0.057

TAATTCTGGT
switch fluorescence ratio: 0.965 ± 0.025

TAATTCTTTT
switch fluorescence ratio: 0.986 ± 0.029

TAATTGGGAG
switch fluorescence ratio: 1.01 ± 0.02

TAATTGGGGG
switch fluorescence ratio: 1 ± 0.03

TAATTGGTTG
switch fluorescence ratio: 0.982 ± 0.012

TAATTTATCC
switch fluorescence ratio: 1.022 ± 0.0095

TAATTTGGA
switch fluorescence ratio: 0.9652 ± 0.004

TAATTTGGGA
switch fluorescence ratio: 0.997 ± 0.013

TAATTTGGGT
switch fluorescence ratio: 1 ± 0.015

TAATTTGTTG
switch fluorescence ratio: 0.988 ± 0.028

TAATTTTAGT
switch fluorescence ratio: 1.0092 ± 0.00027

TAATTTTATG
switch fluorescence ratio: 0.998 ± 0.025

TAATTTTTAG
switch fluorescence ratio: 1.01 ± 0.025

TAATTTTTGT
switch fluorescence ratio: 0.993 ± 0.026

TACAAAGATG
switch fluorescence ratio: 1.025 ± 0.0056

TACAAAGCAG
switch fluorescence ratio: 1.11 ± 0.037

TACAAAGGCG
switch fluorescence ratio: 1.06 ± 0.018

TACAAATTGT
switch fluorescence ratio: 1.03 ± 0.025

TACAAGAATA
switch fluorescence ratio: 0.986 ± 0.03

TACAATCGGA
switch fluorescence ratio: 0.9791 ± 0.0067

TACAATGCTT
switch fluorescence ratio: 1.02 ± 0.017

TACACCTTTC
switch fluorescence ratio: 2.3 ± 0.073

TACACTGGCG
switch fluorescence ratio: 1.05 ± 0.057

TACAGATGT
switch fluorescence ratio: 1.028 ± 0.01

TACAGCACTG
switch fluorescence ratio: 1.29 ± 0.15

TACAGCTAAA
switch fluorescence ratio: 1.03 ± 0.032

TACAGCTTAA
switch fluorescence ratio: 1.022 ± 0.0019

TACAGGAGGG
switch fluorescence ratio: 1.01 ± 0.021

TACAGGCTGA
switch fluorescence ratio: 0.9858 ± 0.0046

TACAGGGGAA
switch fluorescence ratio: 1.09 ± 0.056

TACAGGGTCG
switch fluorescence ratio: 1.13 ± 0.049

TACAGGGTTT
switch fluorescence ratio: 1.021 ± 0.005

TACAGGTGCA
switch fluorescence ratio: 1.81 ± 0.022

TACAGTGTTT
switch fluorescence ratio: 0.975 ± 0.025

TACAGTTACC
switch fluorescence ratio: 1.31 ± 0.11

TACATATTTT
switch fluorescence ratio: 1.05 ± 0.043

TACATCTGAA
switch fluorescence ratio: 0.993 ± 0.023

TACCAAAAAA
switch fluorescence ratio: 1.2 ± 0.18

TACCAACTTA
switch fluorescence ratio: 1.1 ± 0.033

TACCATATTT
switch fluorescence ratio: 1.04 ± 0.021

TACCATGCGG
switch fluorescence ratio: 1.023 ± 0.01

TACCATTTGT
switch fluorescence ratio: 1 ± 0.044

TACCCAGGGA
switch fluorescence ratio: 1.64 ± 0.13

TACCCGACTT
switch fluorescence ratio: 1.13 ± 0.009

TACCCGCTGT
switch fluorescence ratio: 1.56 ± 0.39

TACCGGATGG
switch fluorescence ratio: 1.03 ± 0.021

TACCGGGGGC
switch fluorescence ratio: 1.14 ± 0.09

TACCGGTTCG
switch fluorescence ratio: 1 ± 0.011

TACCGTGGGC
switch fluorescence ratio: 1.04 ± 0.036

TACCTATTTT
switch fluorescence ratio: 1.035 ± 0.0014

TACCTGGGTC
switch fluorescence ratio: 0.996 ± 0.028

TACCTGGTAC
switch fluorescence ratio: 1.056 ± 0.0043

TACGACCGTG
switch fluorescence ratio: 1.01 ± 0.046

TACGATAATC
switch fluorescence ratio: 1.146 ± 0.011

TACGATGGTT
switch fluorescence ratio: 0.989 ± 0.028

TACGATTTAT
switch fluorescence ratio: 1.018 ± 0.0096

TACGCACATA
switch fluorescence ratio: 1.48 ± 0.15

TACGCAGTAT
switch fluorescence ratio: 1.15 ± 0.061

TACGCCTGGT
switch fluorescence ratio: 1.034 ± 0.0071

TACGCTCTCA
switch fluorescence ratio: 1.21 ± 0.23

TACGGAGTCT
switch fluorescence ratio: 0.9814 ± 0.0075

TACGGATTAG
switch fluorescence ratio: 1.051 ± 0.0051

TACGGCAAAT
switch fluorescence ratio: 1.121 ± 0.01

TACGGCAGGG
switch fluorescence ratio: 1.059 ± 0.0024

TACGGGACTT
switch fluorescence ratio: 1.26 ± 0.033

TACGGGGAGT
switch fluorescence ratio: 0.998 ± 0.026

TACGGGGGTC
switch fluorescence ratio: 1.02 ± 0.047

TACGGGTAT
switch fluorescence ratio: 0.9977 ± 0.0024

TACGGGTTTT
switch fluorescence ratio: 1.01 ± 0.039

TACGGTACGG
switch fluorescence ratio: 1.18 ± 0.04

TACGGTCGCG
switch fluorescence ratio: 0.9949 ± 0.0036

TACGGTGGGG
switch fluorescence ratio: 1.01 ± 0.027

TACGTATAAT
switch fluorescence ratio: 1.15 ± 0.015

TACGTATGGG
switch fluorescence ratio: 0.997 ± 0.021

TACGTGAATT
switch fluorescence ratio: 1.04 ± 0.05

TACGTGATTT
switch fluorescence ratio: 1.14 ± 0.093

TACGTGGGTT
switch fluorescence ratio: 0.994 ± 0.051

TACGTTAGCT
switch fluorescence ratio: 1.119 ± 0.0018

TACGTTCTGA
switch fluorescence ratio: 0.999 ± 0.049

TACTACCTGG
switch fluorescence ratio: 1.3 ± 0.25

TACTATACGT
switch fluorescence ratio: 1.276 ± 0.007

TACTATGATT
switch fluorescence ratio: 1.04 ± 0.018

TACTATTATC
switch fluorescence ratio: 1.0537 ± 0.00026

TACTCAGTAT
switch fluorescence ratio: 1.0208 ± 0.00084

TACTCATTGC
switch fluorescence ratio: 1.03 ± 0.067

TACTCGAAAC
switch fluorescence ratio: 1.8 ± 0.97

TACTCGGCCG
switch fluorescence ratio: 1.02 ± 0.035

TACTCGGCTC
switch fluorescence ratio: 1.66 ± 0.11

TACTCGGTTT
switch fluorescence ratio: 0.98 ± 0.014

TACTCTGTGT
switch fluorescence ratio: 1.01 ± 0.014

TACTGAGACA
switch fluorescence ratio: 1.074 ± 0.0066

TACTGGAGGC
switch fluorescence ratio: 1.02 ± 0.043

TACTGTCTTG
switch fluorescence ratio: 0.97 ± 0.014

TACTTACGAT
switch fluorescence ratio: 1.37 ± 0.065

TACTTCATCA
switch fluorescence ratio: 1.03 ± 0.02

TACTTGGCCG
switch fluorescence ratio: 1.01 ± 0.052

TACTTGTAAT
switch fluorescence ratio: 1.02 ± 0.055

TACTTGTGTA
switch fluorescence ratio: 1.02 ± 0.014

TACTTTTGAC
switch fluorescence ratio: 1.04 ± 0.011

TAGAAAAATT
switch fluorescence ratio: 0.993 ± 0.015

TAGAAACGGG
switch fluorescence ratio: 1.02 ± 0.031

TAGAAAGATT
switch fluorescence ratio: 1.02 ± 0.016

TAGAAATCGG
switch fluorescence ratio: 1.02 ± 0.015

TAGAAATTAA
switch fluorescence ratio: 0.977 ± 0.019

TAGAAATTCG
switch fluorescence ratio: 1.28 ± 0.5
